Test [1] deals with T1, human CD40 on the cell surface (human, UniProt P25942 21-277).
T1 construct: whole, on cells; also called Raji cell surface human CD40; human CD40 on HEK-Blue CD40L cells
As to the kind of experiment: flow cytometry on Raji cells, AF647 anti-human IgG detection. The protocol: Raji cells are of a tumor cell line that overexpresses human CD40. 2E5 Raji cells were inoculated onto a 96-well plate. 100 μL of a test antibody was added, with the highest final concentration of 100 nM. The antibody was 5-fold diluted to 8 concentrations. The plate was incubated at 4° C. for 1 h. […] The plate was incubated at 4° C. for 30 min. The plate was washed once with wash buffer, and fluorescence intensity was measured using a flow cytometer. The binding EC₅₀ values of the anti-CD40 antibodies for CD40 were calculated. The anti-CD40 antagonistic antibody CFZ533 (i.e., iscalimab, Nova) was used as a positive control, and the heavy and light chain variable region sequences were derived from sequence 5 and sequence 2 of U.S. Pat. No. 8,277,810B, respectively.
For orientation: In flow cytometry, cells or beads pass a laser one at a time.

Test [2] deals with T1, human CD40 on the cell surface. As to the kind of experiment: cell-based or functional assay.
The target is the same in test [3]. As to the kind of experiment: flow cytometry on Raji cells, Alexa Fluor 488 anti-human IgG (H+L) detection. The procedure: Raji cells were plated at 1.5E5/well, and various concentrations of CD40 antagonistic antibodies were added. The plate was incubated at 4° C. for 1 h. After two washes with FACS buffer (PBS+2% FBS), a secondary antibody (Alexa Flour488 conjugated anti-human IgG (H+L) antibody) was added, and the plate was incubated at 4° C. for 0.5 h.
After two washes with FACS buffer, the fluorescence intensity on the cell surface was measured by flow cytometry (BD FACS Celesta).

Substitutions are numbered along the chain they refer to. In names and notes the source's numbering stands.

Broadly, the EC50 is the concentration giving half of the maximal effect. A high value points to weaker potency.

T1 sequence (P25942 21-277): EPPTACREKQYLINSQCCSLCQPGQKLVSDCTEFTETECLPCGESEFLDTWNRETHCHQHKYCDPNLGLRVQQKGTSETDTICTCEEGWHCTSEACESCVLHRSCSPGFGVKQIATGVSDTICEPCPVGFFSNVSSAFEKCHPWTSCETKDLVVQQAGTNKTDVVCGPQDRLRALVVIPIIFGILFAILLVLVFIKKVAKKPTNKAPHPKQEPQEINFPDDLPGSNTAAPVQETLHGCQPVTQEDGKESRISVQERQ

B1: 10A4 human-rabbit chimeric anti-CD40 antibody (antibody, human IgG1, V domains shown)
VH: QSLEESGGRLVTPGGSLTLTCTVSGIDLSRNAISWVRQSPGNGLEWIGGIGSSGSAYYASWAKSRSTITRDTNLNTVTLKMTSLTAADTATYFCARDGYAGSSWGIYYGMDPWGPGTLVTVSS
VL: AIEMTQSPPSLSASVGETVRIRCLASEDIYRGISWYQQKPGKPPTLLIYGASTLQSGVPPRFSGSGSGTDYTLTIGGVQAEDAATYYCLGGHSYSSAGLTFGAGTKVEIK
B1 gave an EC50 in test [1] of 0.467 nM. Besides, the “reporter gene cell activity IC50 (HEK-Blue CD40L cells, SEAP)” value (from here on “reporter gene cell activity IC50”) in test [2] stood at 0.217 nM.

B2: 2F12 human-rabbit chimeric anti-CD40 antibody (antibody, human IgG1, V domains shown)
VH: QSVKESEGGLFKPKDTLTLTCTVSGFSLSSYGVSWVRQAPGNGLEWIGGIGSDGSAYYASWAKSRATITRDTNLKTVTLEMTSLTAADTATYFCARGGITVYAMWGPGTLVTVSS
VL: AFELTQTPASVEAAMGGTVTIKCQASQSISNGLAWYQQKPGQPPKLLIVGASNLASGVSSRFKGSGSGTEFTLSISDLECADGATYYCQSYFSSSSTVFGGGTEVVVK
notes: Rabbit variable regions joined to human IgG1 constant region with N297A (Eu) and human kappa constant region
For the molecule B2, the EC50 is 0.412 nM in test [1] and 0.479 nM in test [3]. Moreover, in test [2], the “reporter gene cell activity IC50” value came out at 0.172 nM.

B3: 4D4 human-rabbit chimeric anti-CD40 antibody (antibody, human IgG1, V domains shown)
VH: B2 VH with K14T, M104I
VL: B2 VL with A9S, S10P, E12S, M15V, L46V
As for B3, the “reporter gene cell activity IC50” value in test [2] turned out to be 0.197 nM.

B4: 8G10 human-rabbit chimeric anti-CD40 antibody (antibody, human IgG1, V domains shown)
VH: QSVKESEGGLFKPTATLTLTCTVSGFSLSSYGVSWVRQAPGSGLEWIGGIASTGTTYYANWAKSRSTITRDTNLKTVTLKMTSLTAADTATYFCARGGITAYAIWGPGTLVTVSS
VL: B2 VL with A9S, M15V, S30T, V49A, S74T, G83A, F92Y, S93D
In the case of B4, the “reporter gene cell activity IC50” value in test [2] stood at 0.156 nM.

B5: 4F6 human-rabbit chimeric anti-CD40 antibody (antibody, human IgG1, V domains shown)
VH: B2 VH with K14A, G25R, S34T, G49A, D53T, A66S, K75N, E80K, V101A, M104I
VL: AFELTQTPSSVEAAVGGTVTIKCQASQSISNGLAWYQQKPGQPPKLLIAGASNLASGVSSRFKGSGSGIEFILTISDLECADAATYYCQSYYNSFTTVFGGGTEVVVK
In test [1], B5 registered a concentration for a half-maximal effect (EC50) of 0.258 nM. The “reporter gene cell activity IC50” value in test [2] stood at 0.182 nM.

B6: 5B8 human-rabbit chimeric anti-CD40 antibody (antibody, human IgG1, V domains shown)
VH: B2 VH with K14T, S29N, G49A, D53S, K63R, A66S, K75N, E80K, M104I
VL: AFELTQTPSPVSAAVGGTVTINCQASEDITNGIAWYQQKPGQPPKLLIAGASNLASGVSSRFKGSGSGTEFTLTISDLECDDAATYYCQSYYSSSYTIFGGGTEVVVK
B6: the 50% effective concentration (EC50) in test [1] worked out at 0.435 nM. In addition, the “reporter gene cell activity IC50” value in test [2] came out at 0.203 nM.

B7: 8C12 human-rabbit chimeric anti-CD40 antibody (antibody, human IgG1, V domains shown)
VH: B2 VH with K14T, A86V, M104I
VL: B2 VL with A9S, S10P, E12S, M15V, L46V
Take B7: in test [2], the “reporter gene cell activity IC50” value was 0.173 nM.

B8: humanized anti-CD40 antibody 2F12-L2H1 (antibody, human IgG1, V domains shown)
VH: EVTLKESGPVLVKPTETLTLTCTVSGFSLSSYGVSWIRQPPGKALEWLAGIGSDGSAYYASWAKSRLTISRDTNLKQVVLTMTNMDPVDTATYYCARGGITVYAMWGQGTLVTVSS
VL: AFQLTQSPSSLSASVGDRVTITCQASQSISQGLAWYQQKPGKPPKLLIVGASNLASGVPSRFSGSGSGTDFTLTISSLQPEDFATYYCQSYFSSSSTVFGGGTKVEIK
For B8, it took 0.516 nM to reach a half-maximal effect in test [3] (EC50).

B9: humanized anti-CD40 antibody 2F12-L1H1 (antibody, human IgG1, V domains shown)
VH: B8 VH
VL: B8 VL with Q31N, G32V
With B9, the EC50 in test [3] was 0.549 nM.

B10: humanized anti-CD40 antibody 2F12-L4H1 (antibody, human IgG1, V domains shown)
VH: B8 VH
VL: B8 VL with Q31T
Consider B10, for which the response in test [3] was half-maximal at 0.508 nM (EC50).

B11: humanized anti-CD40 antibody 2F12-L3H1 (antibody, human IgG1, V domains shown)
VH: B8 VH
VL: B8 VL with Q31S
Molecule B11 returned an EC50 in test [3] of 0.456 nM.

B12: humanized anti-CD40 antibody 2F12-L1H2 (antibody, human IgG1, V domains shown)
VH: B8 VH with L4V, A49G
VL: B8 VL with Q31N, G32V
As for B12, in test [3], the concentration for a half-maximal effect (EC50) amounted to 0.469 nM.

B13: humanized anti-CD40 antibody 2F12-L2H2 (antibody, human IgG1, V domains shown)
VH: B8 VH with L4V, A49G
VL: B8 VL
As for B13, the EC50 in test [3] was determined as 0.516 nM.

B14: humanized anti-CD40 antibody 2F12-L3H2 (antibody, human IgG1, V domains shown)
VH: B8 VH with L4V, A49G
VL: B8 VL with Q31S
As for B14, it took 0.762 nM to reach a half-maximal effect in test [3] (EC50).

B15: 9F10 human-rabbit chimeric anti-CD40 antibody (antibody, human IgG1, V domains shown)
VH: QSVKESEGGLFKPTDTLTLTCTVSGFSLSSYDMSWVRQAPGNGLEWIGAIGGAGGTYYASWAKSRSTITRNTNLNTVTLKMTSLTAADTATYFCTRGWTRLDLWGQGTLVTVSS
VL: DIVLTQTESPVSGPVGGTVTINCQASEDISSNLAWYQQKPGQPPKLLIYAASNLASGVPSRFKGSGSGTEFTLTISDLECADAATYYCQGAYWSSTSYFGNGFGGGTQVVVK
For B15, in test [2], the “reporter gene cell activity IC50” value stood at 0.217 nM.

B16: 9E6 human-rabbit chimeric anti-CD40 antibody (antibody, human IgG1, V domains shown)
VH: B15 VH with K4R, F11V, T82S, T95A
VL: B15 VL with E8P, P14A, N22K, Y49F, A50P, P59S, A91G, S94T, Y98N, Q108E
For B16, the concentration giving a half-maximal response (EC50) in test [1] is 0.608 nM; in test [3], 0.895 nM. In addition, the “reporter gene cell activity IC50” value in test [2] amounted to 0.221 nM.

B17: 5A9 human-rabbit chimeric anti-CD40 antibody (antibody, human IgG1, V domains shown)
VH: B15 VH with V23A, G25R, V77L, T95A
VL: B15 VL with E8A, P14A, A25S, A34S, A91G, S95G, T96I, Y98N, Q108E
The molecule B17 displayed an EC50 in test [1] of 0.671 nM. Besides, in test [2], the “reporter gene cell activity IC50” value came out at 0.317 nM.

B18: humanized anti-CD40 antibody 9E6-L2H1 (antibody, human IgG1, V domains shown)
VH: EVQLQESGPGLVKPSDTLSLTCTVSGFSLSSYDMSWIRQPPGKGLEWIGAIGGAGGTYYASWAKSRVTISVDTSLNQVSLKLSSVTAADTAVYYCARGWTRLDLWGQGTLVTVSS
VL: DIQLTQSPSFLSASVGDRVTITCQASEDISSNLAWYQQKPGKPPKLLIFPASNLASGVPSRFSGSGSGTEFTLTISSLQPEDFATYYCQGGYWTSTSNFGSGFGGGTKVEIK
For the molecule B18, the concentration giving a half-maximal response (EC50) in test [3] was found to be 1.99 nM.

B19: humanized anti-CD40 antibody 9E6-L2H2 (antibody, human IgG1, V domains shown)
VH: B18 VH with E1Q, L4V
VL: B18 VL
Molecule B19 had an EC50 in test [3] of 1.66 nM.

B20: humanized anti-CD40 antibody 9E6-L1H1 (antibody, human IgG1, V domains shown)
VH: B18 VH
VL: B18 VL with S101N, G102V
Regarding B20, the EC50 in test [3] turned out to be 1.08 nM.

B21: humanized anti-CD40 antibody 9E6-L1H2 (antibody, human IgG1, V domains shown)
VH: B18 VH with E1Q, L4V
VL: B18 VL with S101N, G102V
As to B21, the 50% effective concentration (EC50) in test [3] was found to be 1.05 nM.

B22: humanized anti-CD40 antibody 9E6-L4H1 (antibody, human IgG1, V domains shown)
VH: B18 VH
VL: B18 VL with S101Q
On to B22, for which it took 0.928 nM to reach a half-maximal effect in test [3] (EC50).

B23: humanized anti-CD40 antibody 9E6-L3H1 (antibody, human IgG1, V domains shown)
VH: B18 VH
VL: B18 VL with S101T
B23 returned an EC50 in test [3] of 1.06 nM.

B24: humanized anti-CD40 antibody 9E6-L3H2 (antibody, human IgG1, V domains shown)
VH: B18 VH with E1Q, L4V
VL: B18 VL with S101T
As to B24, the EC50 in test [3] was 1.15 nM.

B25: 3F6 human-rabbit chimeric anti-CD40 antibody (antibody, human IgG1, V domains shown)
VH: QSVKESEGGLFKPTDTLTLTCTVSGFSLSSYAISWVRQAPGNGLEWIGAIDRYGTTYYATWAKSRSTITRNTNENTVTLKMTSLTAADTATYFCARGPWYYGGDVAWTGSFDPWGPGTLVTVSS
VL: AQVLTQTASPVSAAVGGTVTISCQSSQSVANNDFLSWYQQKPGQPPKLLIYGASTLASGVPSRFRGNGSGTQFTLTITGMQCDDAATYFCTGGYAGPIYIFGGGTEVVVK
The molecule B25 returned an EC50 in test [1] of 1.51 nM. Moreover, the “reporter gene cell activity IC50” value in test [2] worked out at 0.378 nM.

These data come from patent US20250340661A1 (JIANGSU HENGRUI PHARMACEUTICALS, published 2025).
